Results from a protein production outcome set (Wang et al. 2014).

Test: label from the status in PepcDB records

Sequence	protein production
MDNQHNQNHIMGTLQWFIFLLANSIALPIVVGGLFHLTTEEIFYLMQRTFFVVGISSFLQGWLGHRLPIADGPAGSWVGVFTVLAYATAGQDQLHSTLQILELGMIISGIILIGLGVTGFIGRILFLFTPLVTGTFLLLLCLQLSGVFLKGMLGITATISQIDGFTAMIAFSIFLFVIILSNFGKGFVKSYAVLIGLISGWIIFLIAGKVTIPSQVTHFVQLPHIFAWGLPKWNTGMAVSSFVMVCILVSNTVAAIIAINQATIHKATIEQKQLKDGTWVGGISHIISSVFSTVGVVPLPATAGFIRLTKQKYIRSFLMACALLVVMSLFPSIIRYLASLPSAVASAVLMASFVQLIGIGFNNIKQVPMSERNVTILGVAVLFGSGVMFLPSGALQSLPSVMQYIFGNGLFVGTVVSILLEQIWRVGK	not failed
MDPEETSVYLDYYYATSPNSDIRETHSHVPYTSVFLPVFYTAVFLTGVLGNLVLMGALHFKPGSRRLIDIFIINLAASDFIFLVTLPLWVDKEASLGLWRTGSFLCKGSSYMISVNMHCSVLLLTCMSVDRYLAIVWPVVSRKFRRTDCAYVVCASIWFISCLLGLPTLLSRELTLIDDKPYCAEKKATPIKLIWSLVALIFTFFVPLLSIVTCYCCIARKLCAHYQQSGKHNKKLKKSIKIIFIVVAAFLVSWLPFNTFKFLAIVSGLRQEHYLPSAILQLGMEVSGPLAFANSCVNPFIYYIFDSYIRRAIVHCLCPCLKNYDFGSSTETSDSHLTKALSTFIHAEDFARRRKRSVSL	failed
MDPEIQPPPGKAEIKAKIWKLKTAPKIKHFLWKLLSGALATGDNLKRRHIRNHPQCHRCCQEDETSQHLFFDCFYAQQVWRASGIPHQELRTTGITMETKMELLLSSCLANRQPQLFNLAIWILWRLWKSRNQLVFQQKSISWQNTLQRARNDVQEWEDTNTYVQSLNQQVHSSRHQQPTMARTKWQRPPSTWIKYNYDGAFNHQTRNAKAGWLMRDENGVYMGSGQAIGSTTSDSLESEFQALIIAMQHAWSQGYRKVIFEGDSKQVEELMNNEKLNFGRFNWIREGRFWQKRFEEAVFKWVPRTNNQPADILAKHHLQPNQSFKFHYYVPAFITSTLYYDH	failed
MDPEVFAQARLRMDQLTKPPRALGYLEEVALRLAALQGRVKPELGRGAVVVAAADHGVVAEGVSAYPQEVTRQMVLNFLRGGAAINQFALAADCAVYVLDVGVVGELPDHPGLLKRKVRPGTANLAQGPAMTPEEAERALLAGREAARRAIAEGATLLAAGDMGIGNTTAAAALTAALLGLPPEAVVGRGTGVGEEGLRRKRQAVARALARLHPGMGPLEVAAEVGGLELVAIAGIYLEGYEAGLPLVLDGFPVTAGALLAWKMAPGLRDHLFAGHLSREPGHRHQLEALGLRPLLDLDLALGEGTGAVLAMPLLRAAARILHMATFQEAGVSRG	not failed
MDPLALLRKAGLEAEGPALPLHGGDISRVWRVGRFVVKTAQDPPPGLFRAEARGLQALAERGVRVPQVHWVGEEGLVLAYLEPGPEDWEGLARTLAALHRRREGSYLAEPGFLGTFPLPGREGGEWTAFFYERCVLPLLEATWDRLQGLGPKVEALYRRPLPAEGPAPLHGDLWHGNVYFAREGPALLDPSFFVGERGVDLAMMRLFGGFPRRFWEVYGELYPVPEEVERALPRYQVYYLLAHVHFFGQGYLGALWRAISAS	failed
MDPLEDVLTLLKTRSHLSASLVAGGRWAVRFDAPRVVKFNAVRRGTCQLEVDGIDEPIDLAEGDCYLLTRPRSFTLRSDPETAPVDGGAVFARAEDGIARAGQGDDVFLIGGGFSFGTRAQELLLDRLPPIVHVPADTPHAETVQWALTAIDQELTHRPMASTLIAEHLAVIMLVHVLRLHLERAPHAVSGWLAGLADPVVATALTCLHRDPARSWTVADLADTAAVSRSTLAARFKATVGQGPLEYLTRWRIELAARQLREGNATLASIAHSVGYGSESALSVAFKRVLGMPPGDYRKHPTMP	failed
MDPSAPALDSAFWITTGAILLLLILSGFFSGSETALTAASRGKLRSQADKGSKGAQKALAITDDNERLIGSVLLGNNLVNILAASLATALFTRAFGESGVALATLVMTLLVLIFAEVLPKTYAITNSEKAAAAVAPIIGVVVMVFSPVVALVRLLVRGVLRLFGVRIDPDSHIMAVREEIAGALYLGHSEGVVEKEDRDRILGALDLAERTVEEIMLHRSNIVMLDADAEPETILEHCLQSPHTRLPVYRGEPENIIGVVHAKDLFRAMYAQVGGSEGHTARLKDFDISRVANAPYFVPETTTLDDQMRAFLRMRSHFALVVDEYGSLRGLITLEDILEEIVGEITDEFDPAAEMPVTRSDDGQFLVDGAMTIRDVNRAMDWSLPDDEANTVAGLVIHEAQMIPTVGQVFAFHGFRFEVTGREGNRITGLKIRPL	failed
MDQNTTPAPGLRETKKRETRQLISDHATRLFIERGFEHTTIAEIADAARVAKKTVTNYFPRKEDLALDHQDEFVAALAATVTARGAGETPLTALRHAFLAAVAAQDPVAGFAGQAFTRMIADSPTLTACLRGLHDRREEALTAALAGTTDTPPDDITPRTAAALLGGVHRVLFNRIQELTLAGRATPEIAEVLAREAPRAFDLLTPALAEYGRRP	not failed
MDRDLLRQSLNCHGSSLLSLLRSEQQDNPHFRSLLGSAAEPARGPPPQHPLQGRKEKRVDNIEIQKFISKKADLLFALSWKSDAPATSEINEDSEDHYAIMPPLEQFMEIPSMDRRELFFRDIERGDIVIGRISSIREFGFFMVLICLGSGIMRDIAHLEITALCPLRDVPSHSNHGDPLSYYQTGDIIRAGIKDIDRYHEKLAVSLYSSSLPPHLSGIKLGVISSEELPLYYRRSVELNSNSLESYENVMQSSLGFVNPGVVEFLLEKLGIDESNPPSLMRGLQSKNFSEDDFASALRKKQSASWALKCVKIGVDYFKVGRHVDAMNEYNKALEIDKQNVEALVARGALYATKGSLNKAIEDFELALENCPTHRNARKYLCQTLVERGGQLEEEEKFLNAESYYKKALALDETFKDAEDALQKLHKYMQVIPYFLLEI	failed
MDREAFVQTLTACRLCPRLVAWREEVVGRKRAFRGEPYWARPVPGFGDPEARILLFGLAPGAHGSNRTGRPFTGDASGAFLYPLLHEAGLSSKPESLPGDDLRLYGVYLTAAVRCAPPKNKPTPEELRACARWTEVELGLLPEVRVYVALGRIALEALLAHFGLRKSAHPFRHGAHYPLPGGRHLLASYHVSRQNTQTGRLTREMFLEVLMEAKRLAGL	not failed
MDRHTTEGWRRWAARLGAAAMALLLAACAAPRQQAASVDELPSWNDGPSRTAIVEFVRAVTRSGGPDFVAADERIAVFDNDGTLWSEQPMYFQMLFALDRVKSMAPRHPDWARRQPFKAALQDDHAALAKGGDVALMKIVGATHTDMSTDTFTRSVRYWASTARHPRFDRLYTELTFAPMRELLDYLRAHGFKTYIVSGGETEFMRSWTQQAYGIPPEQVIGSSFVTTYGVRDGEPTLWRHGKLEFNDDGPGKPVAIQRYIGRRPILAFGNSDGDLQMLQWTAAGDGKRFAGLVHHTDAQREWAYDRDSRIGRLDRALDEARRQDWTVVDMKTEWKRVYAFEQP	not failed
MDRIDAMKVFVAAIDEGSLAGAARRLKRSPTAVSRALSFLEAHVGVELLHRTTRTLKLSEAGQRYAAACRRVLTDLEEADMLAGGERSAPRGMLTISSPPILGEEILRPILDDFLDLYPTVSVRLLLLDRFVNLVDEGVDIALRIGQLADSSLISTRLGGDVRRVVVASPRYLANHPRIEEPADLDKHQILAFTNFGLESWSFTPAKGSSVPRTIQFTPRCIVNSVRAAAASAAAGRGLTRLYSYHVAEYVRDGRLEIVLADAEHPPLPAHLIAPQGRMSVPKVRAFVDFAAPRLRSEFARMAAEAGTLT	failed
MDRLKAMQVFVEVADRGSLSAAAMHLGMSRAMVSRYLAELEAWVGVRLLHRTTRRLSLTPAGSETLPRCRRMLEMVGDMREAVAAPDAEPRGLLRVTAAMSFGGAQLAEAVAEFVRRHPAASIDLLLVDRAVNLVEERVDLAVRITNDLDPNLIGRRLADCRSVVCAAPQYLQQHGAPARAEDLSLHNCLTHSYFGRSLWRFERAGEPVEVPVGGNITANETDVLMRAALAGAGIVMLPTYLAAGQIAAGTLRPLLPDCAPPVLGIHGVYVSRKQMPLILRTMLDFLAERFNPAPWDAALEGR	failed
MDRLSDFERLTAEIKSLKESLKEKIDKVLSRSVKEASETSEEKKEQSEIAEEGNEDGDNVLVSSLEDEIDSKEEEVLAASCRLLNMFRELDCTFDGPERRMGRLNLNEITEACSRHIVTAMETEQETLNRAISISNAWKHQVSALFNGGIEGEQIKKDLQRLKASSGDEVYWLIRKAFREARVALRTNVYMKPWNLEERREATLMELLGPLPEIARRRLQGRPRRDDCC	failed
MDRMAVAEEQILLERVRRKIEEVNASGQSQLSPIQEHISFTLLIYAPLIDDELQQAYFKCSNECFEKRRKPEVTTNCVELCRVPVAKSQQQFDSDMAKFQDRMNRSLMVCQDKFEAAKLLNMNRIDAAKDMEGCVNDAAAALLGG	failed
MDRRLKKCSTSTDVESVHDVSKVTDPLQKAKRELDNVEIKEKQKKQKNQNETSEKETKKFSTVYEKFNDTIKELDRVSGTCPIRPAIPFTPPKEKVEPIYHNECNFDDKAHLGVSDSALFVQGFDTSHPRHEIKTALWNHFSSCGKVYLIYVPIACSTGASVGYAFIDMKNETKGLTLNGSHLGGRKIDVMFAIDREEFYFSSNLKHCQRCRNYRPWLVLKAMSDACFEYHQRIKPRIVGTPHSKIGRFTAIIGRRSYS	failed
MDRRVTRRGVLAAAGIALAGCTDNGDDQPVRTPLPDEEREPLSNTWRSLGRDDGNTGAVAGIAGPYIEVAAEWQFDVGGAVIGGPVFDENTLYAGTADGEVYALDTHVGAERWSFSADGPVSTTPVVDDGLVAVGSSDGHIYGIDADDGTELWRFDTAVRVDSSPAIDDRYVYAGSVSNAAYAIDRTNGELHWRFDADGSVLASPAVGDETVYVASTDHNVYAIDPDSGEADWQFTTGGEISVAPTLVGDRLYVGSRDSSVYAIDTGSGEGRWSFGLEAAVASSPAVLGDRLFVGAADHNLYALGIGDDSPEGLWRSPTPGAAVGNPAVTDDHVFFGGRDGAVRALRTDGGDRSWEHDVDGGIQGGPALTDRWLYVGTDAGTVYAFRAG	failed
MDRSYAVFGLGEFGRSVSYELMEIGADVLAVDKNENKITAIADDVTMAISIDALNEMAYEKLGLNNMDGVVVSMSGNLSASIMAIIAAKDAGVPLVIAKASDDTQRTIFKKVGADRVVIPERDGAVRTAHNLVAKNFLDYIELSDKISIIEINVKDEWLHKPLAELNLRSKYGLNVIAIRRNNDLQTDIGPNLTFDKGDTILVVTDKHDLGL	failed
MDRTLTHQPQEYAVSVSVGEVKLKGNLVIPNGATGIVLFAHGSGSSRYSPRNRYVAEVLQQAGLATLLIDLLTQEEEEIDLRTRHLRFDIGLLASRLVGATDWLTHNPDTQHLKVGYFGASTGGGAALVAAAERPETVQAVVSRGGRPDLAPSALPHVKAPTLLIVGGYDLPVIAMNEDALEQLQTSKRLVIIPRASHLFEEPGALTAVAQLASEWFMHYLR	not failed
MDSASQDINLNSPNKGVLSDFMTDVPVDPGVVHRTPVVEGLTEGEEEELRAELAKVEEEIVTLRQVLAAKERHCGELKRRLGLSTLGELKQNLSRSWHDVQVSTAYVKTSEKLGEWNEKVTQSDLYKKTQETLSQAGQKTSAALSTMGSAISRKLGDMSSYSIRHSISMPVMRNSATFKSFEDRVGTIKSKVVGGRENGSDNLPPSPGSGDQTLPDHAPF	failed
MDSDFHVKPEIRILGIDDSALLNEKVMIVGTVFRGGDWIDGVLRSEITRDGLDATEVMVTMIKNSRHHNQLRVIMLDGITYGGFNVVDIEELYRETGLPVIVIMRSCPDFEKIRSALKHFSDGEERWKIIKKAGKIEKLITGRNGTPIYIQKAGIGAKNVEKIIRLTSIRSSIPEPLRVAHLIATGITLGESRGKA	failed
